Results from article PMC12552534.

How the values were obtained:
[1] = target: C terminally LgBiT-fused C protein (Sendai virus); experiment: split reporter (BiFC, NanoBiT); NanoBiT; 293T cells co-transfected with LgBiT-fused C and SmBiT-fused STAT1, STAT3 or SV40 large T antigen (negative control), 24 h; luciferase activity measured in NP-40 lysates, normalised to GAPDH; control set to 1
[2] = target: N terminally histidine-tagged N-terminal domain of STAT3 (STAT3ND) (human) (UniProt P40763); experiment: SEC; Y3 and STAT3ND alone or mixed equimolar (100 μM in text and methods, 50 μM in the legend), preincubated 10 min on ice; Superdex 75 Increase 10/300 GL, 20 mM Tris-HCl pH 8.0, 100 mM NaCl, 4 °C, 0.5 ml/min; fractions on SDS-PAGE
[3] = target: N terminally histidine-tagged N-terminal domain of STAT3 (STAT3ND) (human) (UniProt P40763); experiment: native MS; Y3 (50 μM) complexed with STAT3ND (50 μM), buffer-exchanged to 450 mM ammonium acetate pH 8.0, nano-ESI, native condition
[4] = target: N terminally histidine-tagged Y3 (C-terminal region of Sendai virus C protein) (Sendai virus); experiment: as above

Sequence of C terminally LgBiT-fused C protein (Sendai virus) (P04862 1-204): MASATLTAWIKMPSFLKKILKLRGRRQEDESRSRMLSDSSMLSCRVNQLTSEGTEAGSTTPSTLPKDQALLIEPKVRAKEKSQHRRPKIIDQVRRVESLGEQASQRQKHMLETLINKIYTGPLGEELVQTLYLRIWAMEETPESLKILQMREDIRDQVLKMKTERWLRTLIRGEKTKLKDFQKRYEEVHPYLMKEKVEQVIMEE

N terminally SmBiT-fused STAT3 (from UniProt P40763 1-770) (natural protein)
luciferase activity, fold lower than with SmBiT-fused STAT1 [1]: 4.8 fold | luciferase activity, fold over the SmBiT-fused SV40 large T antigen negative control [1]: 1.3 fold

N terminally histidine-tagged N-terminal domain of STAT3 (STAT3ND) (from UniProt P40763 3-138) (domain or fragment)
stoichiometry N [2]: 2

N terminally histidine-tagged Y3 (C-terminal region of Sendai virus C protein) (domain or fragment)
stoichiometry N (Y3 per STAT3ND (1:2)) [3]: 0.5 | stoichiometry N [4]: 2
